The target in assay [1] is T1, mouse serum albumin (mouse, UniProt P07724 25-608).
T1 construct: also called MSA
Kind of assay: SPR (ProteOn XPR36), Protein #5 captured on hFAP-coated GLC chip, serum albumin as analyte, PBST; flagged as overestimated, inaccurate fit. On the procedure: (§1) All SPR measurements were performed using a ProteOn XPR36 instrument (BioRad) and a running buffer of PBS pH 7.4 containing 0.005% Tween 20® (PBST). The 1:1 Langmuir model was used for the fitting of SPR traces.
(§2) ProteOn setup for Protein #5 binding to serum albumin of different species. First, human FAP (hFAP) was coated on a GLC chip (BioRad) to a level of 700 RU before 50 nM Protein #5 was immobilized as analyte for 120 s (dissociation of 0 s) at constant flow of 100 μl/min to a level of 120 RU. The binding of the serum albumin to Protein #5 was measured by injecting human serum albumin (HSA), cynomolgus serum albumin (CSA) and mouse serum albumin (MSA) in a serial dilution of 100, 33, 11 and 3.7 nM with an association of 120 s and a dissociation of 600 s at a constant flow of 100 μl/min. HSA, CSA and MSA binding was measured serially and the hFAP/Protein #5 complex was regenerated each time with 10 mM glycine pH2 for 18 s at a flow of 100 μl/min. Thus, Protein #5 had to be re-immobilized on hFAP after each regeneration step. […] The kinetic was calculated on the first 300 s of dissociation.

Assay [2] addresses T2, biotinylated human CD40 (Acro Biosystem) (human, UniProt P25942 21-193, biotinylated (sites not given)).
T2 construct: Bought protein; also called Bio-hCD40; hCD40
Briefly: SPR (ProteOn XPR36), biotinylated CD40 on NLC chip, Protein #5 as analyte, PBST, 1:1 Langmuir. On the procedure: as §1
(§3) ProteOn setup for Protein #5 binding to CD40 of different species. CD40 proteins (Acro Biosystem) of different species (human, cynomolgus, mouse) were biotinylated with standard methods known in the art, resulting in bio-hCD40, bio-cCD40 and bio-mCD40 proteins. The bio-hCD40, bio-cCD40 and bio-mCD40 proteins were immobilized on an NLC chip (BioRad) to a level of respectively 300 RU, 250 RU and 300 RU. The interaction of Protein #5 with CD40 was measured by injecting Protein #5 in a serial dilution of 3, 1.5, 0.75, 0.38 and 0.19 nM with an association of 120 s and dissociation of 900 s using a constant flow of 100 μl/min. The measurement was repeated two or three times and the targets were regenerated between the individual measurements using 10 mM glycine pH 2 for 18 s at a flow of 100 μl/min. The signals were double referenced against the running buffer (PBST) treated control lanes.

The target in assay [3] is T3, biotinylated cynomolgus CD40 (Acro Biosystem) (cynomolgus, UniProt G7PG38 21-193, biotinylated (sites not given)).
T3 construct: also called Bio-cCD40
The description is as above. As to the method:
as §1, §3

The target in assay [4] is T4, mouse FAP (mouse, UniProt P97321 26-761, limits assumed).
T4 construct: also called mFAP
T4 sequence (looked up): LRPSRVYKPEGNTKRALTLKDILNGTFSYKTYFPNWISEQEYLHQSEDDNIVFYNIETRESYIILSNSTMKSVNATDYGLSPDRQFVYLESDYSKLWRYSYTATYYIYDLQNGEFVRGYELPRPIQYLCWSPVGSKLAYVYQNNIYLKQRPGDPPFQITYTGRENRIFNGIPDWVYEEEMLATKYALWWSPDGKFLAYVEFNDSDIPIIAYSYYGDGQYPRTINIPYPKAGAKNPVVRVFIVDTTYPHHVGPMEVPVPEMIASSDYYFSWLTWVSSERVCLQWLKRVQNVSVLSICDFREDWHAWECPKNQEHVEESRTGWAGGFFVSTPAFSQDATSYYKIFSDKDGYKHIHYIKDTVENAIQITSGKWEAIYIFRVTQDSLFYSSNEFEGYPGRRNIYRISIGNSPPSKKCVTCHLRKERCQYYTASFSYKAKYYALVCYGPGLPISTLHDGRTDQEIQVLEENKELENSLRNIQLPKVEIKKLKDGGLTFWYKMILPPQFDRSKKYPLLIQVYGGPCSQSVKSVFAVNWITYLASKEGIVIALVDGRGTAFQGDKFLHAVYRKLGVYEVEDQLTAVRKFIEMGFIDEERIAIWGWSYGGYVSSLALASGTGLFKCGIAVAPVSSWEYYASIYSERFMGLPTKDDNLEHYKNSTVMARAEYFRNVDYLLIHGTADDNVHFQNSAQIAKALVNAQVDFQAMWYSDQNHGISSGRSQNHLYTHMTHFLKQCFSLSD
Briefly: SPR (ProteOn XPR36), mFAP immobilized on GLC chip, Protein #5 as analyte. As to the method: as §1
ProteOn setup for Protein #5 binding to FAP of different species. hFAP, cynomolgus FAP (cFAP) and mouse FAP (mFAP) were immobilized on a GLC chip (BioRad) in 10 mM Na Acetate buffer pH5.3 to a level of 1200 RU, 800 RU and 2000 RU, respectively. The interaction of FAP and Protein #5 was measured by applying Protein #5 in a serial dilution of […] and 3.13 nM with an association of 120 s and dissociation of 1800 s using a constant flow of 100 μl/min. The targets were regenerated using 10 mM glycine pH 2 and 124 mM H₃PO₄. The signals were double referenced against the PBST treated control lanes.

For assay [5], the target named is T5, human serum albumin (human, UniProt P02768 25-609).
T5 construct: also called HSA
T5 sequence (P02768 25-609 limits assumed): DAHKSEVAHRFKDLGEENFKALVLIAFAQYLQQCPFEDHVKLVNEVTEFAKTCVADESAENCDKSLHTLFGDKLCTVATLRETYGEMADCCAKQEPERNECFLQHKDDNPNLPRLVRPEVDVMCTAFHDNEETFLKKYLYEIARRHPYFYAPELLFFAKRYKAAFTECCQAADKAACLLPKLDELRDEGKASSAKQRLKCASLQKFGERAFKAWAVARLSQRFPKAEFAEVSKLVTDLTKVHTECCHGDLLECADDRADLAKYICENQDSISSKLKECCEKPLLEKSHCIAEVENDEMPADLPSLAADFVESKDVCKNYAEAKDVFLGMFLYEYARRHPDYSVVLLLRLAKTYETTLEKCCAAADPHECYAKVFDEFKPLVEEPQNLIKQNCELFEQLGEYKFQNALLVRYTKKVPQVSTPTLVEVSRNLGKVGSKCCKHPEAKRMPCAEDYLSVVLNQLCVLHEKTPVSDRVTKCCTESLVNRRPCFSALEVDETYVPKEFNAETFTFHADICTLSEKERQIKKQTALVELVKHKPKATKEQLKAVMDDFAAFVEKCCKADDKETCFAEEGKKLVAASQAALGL
Briefly: SPR (ProteOn XPR36), Protein #5 captured on hFAP-coated GLC chip, serum albumin as analyte, PBST. As to the method: as §1, §2

Assay [6] deals with T1, mouse serum albumin. Kind of assay: SPR (ProteOn XPR36), Protein #5 captured on hFAP-coated GLC chip, serum albumin as analyte, PBST; flagged as overestimated, inaccurate fit; MSA as analyte; patent flags the fit as inaccurate (Chi^2/Rmax 13.1 %) and the KD as overestimated due to nonspecific binding of MSA on the chip. As to the method: as §1, §2
Assay [7] deals with human CD40 on primary human B cells or human monocyte-derived dendritic cells (human, UniProt P25942 21-277). Briefly: cell-based or functional assay.
Sequence of human CD40 on primary human B cells or human monocyte-derived dendritic cells (P25942 21-277 H80K/K81H limits assumed): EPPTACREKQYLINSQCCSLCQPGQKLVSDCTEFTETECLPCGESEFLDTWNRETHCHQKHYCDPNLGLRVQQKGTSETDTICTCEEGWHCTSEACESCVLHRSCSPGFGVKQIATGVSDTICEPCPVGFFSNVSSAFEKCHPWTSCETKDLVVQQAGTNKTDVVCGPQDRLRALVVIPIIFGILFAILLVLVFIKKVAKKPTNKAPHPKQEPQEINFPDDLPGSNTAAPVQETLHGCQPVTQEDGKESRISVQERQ

The values that follow come from US20210395318A1 (Molecular Partners, published 2021).

A word on the koff: it is the first-order rate constant of dissociation. As usually defined, the kon is a measure of how fast the partners come together. The term Kd denotes the free concentration of one partner at which half of the binding sites on the other are occupied at equilibrium, for simple one-to-one binding.

T2 sequence (P25942 21-193 H80K/K81H limits assumed): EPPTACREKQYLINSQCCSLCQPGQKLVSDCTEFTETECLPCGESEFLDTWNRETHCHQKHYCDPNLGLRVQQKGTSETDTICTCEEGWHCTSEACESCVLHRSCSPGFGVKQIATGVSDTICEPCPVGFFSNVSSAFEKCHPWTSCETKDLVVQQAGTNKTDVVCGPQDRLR

B1: DARPin Protein #5 (designed binder)
chain: GSDLGKKLLEAARAGQDDEVRELLKAGADVNAKDYFSHTPLHLAARNGHLKIVEVLLKAGADVNAKDFAGKTPLHLAAADGHLEIVEVLLKAGADVNAQDIFGKTPADIAADAGHEDIAEVLQKAAGSPTPTPTTPTPTPTTPTPTPTGSDLGKKLLEAARAGQDDEVRILLAAGADVNAKDVLGWTPLHLAAFEGHLEIVEVLLKAGADVNAKDKKGWTPLQLAARTGHLEIVEVLLKAGADVNAKDHIGATPLHLAAWQGHPEIVEVLLKAGADVNAQDKSGKTPADLAADAGHEDIAEVLQKAAGSPTPTPTTPTPTPTTPTPTPTGSDLGKKLLQAARAGQLDEVRELLKAGADVNAKDTWGFTPLHIAAESGHLEIVEVLLKAGADVNAKDVQGRTPLHIAAHSGHLEIVEVLLKAGADVNAKDFRGWTPLHLAAWSGHLEIVEILLKAGADVNAQDKSGKTPADLAARAGHQDIAEVLQKAAGSPTPTPTTPTPTPTTPTPTPTGSDLGKKLLQAARAGQLDEVRELLKAGADVNAKDTWGFTPLHIAAESGHLEIVEVLLKAGADVNAKDVQGRTPLHIAAHSGHLEIVEVLLKAGADVNAKDFRGWTPLHLAAWSGHLEIVEILLKAGADVNAQDKSGKTPADLAARAGHQDIAEVLQKAA
notes: also called SMA136; Molecule No. 1
As for B1, the koff in assay [1] is 0.0126 s⁻¹; in assay [2], 0.00103 s⁻¹; in assay [3] it was 0.000824 s⁻¹; in assay [5], 0.0179 s⁻¹. The kon in assay [1] is 315000 M⁻¹ s⁻¹; in assay [2], 1.01e+07 M⁻¹ s⁻¹; in assay [3], 8.25e+06 M⁻¹ s⁻¹; in assay [5] it was 358000 M⁻¹ s⁻¹. Further, the Kd was 0.103 nM in assay [2], 0.101 nM in assay [3], 50 nM in assay [5] and 40 nM in assay [6]. In assay [4], the binding result is “no binding (tested: 50 nM (highest concentration injected))”. The “EC50, upregulation of CD86 and CD69 in human B cells co-cultured with FAP-expressing CHO cells” value in assay [7] fell in the range of 0.04 to 0.07 nM.
